Results: PMC9482634, “Structural mechanism of tapasin-mediated MHC-I peptide loading in antigen presentation” (Nature Communications, 2022)
Positions count from the first letter of the chain named. Blank lines part the entries; values can stand above or below the binder they belong to.

Assays:
Settings in all cases: both partners purified
[1] = biological target: T1, human tapasin, lumenal domain (Gly1-Glu381), as used in the SPR experiments with the PaSta Fabs (Homo sapiens (human)); test: SPR; PaSta2 Fab (panel c) or PaSta1 Fab (panel d) immobilised on a CM5 chip, tapasin captured on it, the other Fab injected at 62.5 to 4000 nM; fit to a 1:1 binding model (BiaEval 3.1); 25 °C, 10 mM HEPES pH 7.4, 150 mM NaCl, 3 mM EDTA, 0.05% Surfactant P20, 30 µL/min
T1 construct: human tapasin, lumenal domain, residues Gly1 to Glu381; the construct encodes the signal peptide too, the protein is secreted; for the SPR with the Fabs nothing is said; also called TPN; source: Drosophila S2 cells, purified from culture medium (chelate agarose, SEC, anion exchange)
T1 chain: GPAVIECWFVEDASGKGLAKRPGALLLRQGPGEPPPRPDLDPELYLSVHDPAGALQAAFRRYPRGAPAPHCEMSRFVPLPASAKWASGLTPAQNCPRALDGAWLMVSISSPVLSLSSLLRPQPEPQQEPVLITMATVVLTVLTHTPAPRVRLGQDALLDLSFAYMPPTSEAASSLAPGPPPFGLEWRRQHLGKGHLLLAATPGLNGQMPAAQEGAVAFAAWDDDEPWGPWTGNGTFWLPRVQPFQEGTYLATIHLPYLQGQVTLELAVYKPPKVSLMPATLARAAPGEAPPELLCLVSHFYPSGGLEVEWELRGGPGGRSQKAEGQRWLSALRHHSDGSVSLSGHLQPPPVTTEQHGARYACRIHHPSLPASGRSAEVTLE

[2] = biological target: T2, human tapasin lumenal domain (Gly1-Glu381), BirA and 6X His sequences removed with 3C protease (human, UniProt O15533); test: crystal structure; tapasin–PaSta1 Fab complex, PDB 7TUF, 2.8 Å; crystals grown in 10% PEG 4000, 0.1 M Hepes, pH 7.5
T2 construct: Residues of the 3C site may remain at the C-terminus after cleavage; source: Drosophila S2 cells, purified from the culture media (chelate agarose, SEC, anion exchange), treated with 3C protease; not shown: 6X HIS, C-terminal, cleaved

[3] = biological target: T3, human tapasin lumenal domain (Gly1-Glu381), state of the C-terminal tags not stated (human, UniProt O15533); test: SPR; Fab of PaSta1 or PaSta2 covalently coupled onto CM5 chips (about 200 RU); tapasin 0.06 µM to 4 µM injected; 25 °C; 10 mM HEPES pH 7.4, 150 mM NaCl, 3 mM EDTA, 0.05% Surfactant P20; 30 µL/min; 1:1 binding model
T3 construct: Tapasin as injected over the Fab surfaces in SPR and as added in the NMR experiments; source: Drosophila S2 cells, purified from the culture media (chelate agarose, SEC, anion exchange)

[4] = biological target: T2, human tapasin lumenal domain …; test: crystal structure; tapasin–PaSta2 Fab complex, PDB 7TUG, 3.9 Å; crystals grown in 17% PEG 10000, 0.1 M Bis-Tris, pH 5.5, 0.1 M Am acetate
[5] = biological target: parental HLA-B*44:05 refolded with hβ2m and the peptide … (human | ); test: SPR; biotinylated tapasin captured (200 RU) on a streptavidin chip; MHC-I offered in graded concentrations (15.6 nM to 500 nM for B44:02–9mer and B44:05-T73C–6mer, 1 µM to 16 µM for B44:05–9mer); 25 °C; 10 mM HEPES pH 7.4, 150 mM NaCl, 3 mM EDTA, 0.05% Surfactant P20; 30 µL/min; global fit to a 1:1 binding model; n = 3

B1: PaSta1 Fab (anti-tapasin monoclonal antibody PaSta1) (Fab, V domains shown)
VH: DVQLQESGPGLVIPSQSLSLTCTVTGYSITTDYAWNWIRQFPGNRLEWMGYISSSGVTVYNPSLKSRISITRDTSKNQFFLQLISVTTEDTATYYCARRGYYRYDSIDYWGQGTTLTVSS
VL: QIVLSQSPAILSASPGEKVTMTCRATSSVSYIHWYQQKPGSSPKPWIYATSSLTSGVPVRFSGSGSGTSYSLTISRVEAEDAATYYCQQWSSNPPTFGGGTKLEIK
notes: heavy chain of the Fab in PDB 7TUF (ends after the second cysteine of the hinge, then His6); light chain of the Fab in PDB 7TUF; also called Pt1; Pt1H; source: Expi293F, transfected, purified from culture supernatant (TALON, SEC)
Kd [1]: 1.1 nM

B2: Fab fragment of the anti-tapasin monoclonal antibody PaSta1 (Fab, V domains shown)
VH: B1 VH
VL: B1 VL
notes: H chain of PaSta1 in PDB 7TUF (deposited here); the Fab H chain ends after the second cysteine in the hinge region, followed by the 6X HIS tag; L chain of PaSta1 in PDB 7TUF (deposited here); The L chain search model had VL and Cκ; also called PaSta1 (Fab); Pt1; source: Expi293F cells, transfected, purified from culture supernatants (TALON, SEC)
binding result [2]: binds
binding result [3]: binds

B3: PaSta2 Fab (anti-tapasin monoclonal antibody PaSta2) (Fab, V domains shown)
VH: QVQLQQSGAELVRPGTSVKMSCKAAGYTFTNYWIGWIKQRPGHGLEWIGDIYPGGGYTNYNEKFKVKATLTADTSSVTAYMQLSSLTSEDSAIYYCTREGNYGFAYWGQGTLVTVSA
VL: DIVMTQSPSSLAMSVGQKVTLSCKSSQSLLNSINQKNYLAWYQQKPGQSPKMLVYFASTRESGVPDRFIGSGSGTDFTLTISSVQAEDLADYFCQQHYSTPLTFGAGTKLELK
notes: heavy chain of the Fab in PDB 7TUG and 7TUH (ends after the second cysteine of the hinge, then His6); light chain of the Fab in PDB 7TUG and 7TUH; also called Pt2; Pt2H; source: Expi293F, transfected, purified from culture supernatant (TALON, SEC)
Kd [1]: 1.6 nM

Results, then the binder that gave them:

binding result [4]: binds
binding result [3]: binds
B4: Fab fragment of the anti-tapasin monoclonal antibody PaSta2 (Fab, V domains shown)
VH: B3 VH
VL: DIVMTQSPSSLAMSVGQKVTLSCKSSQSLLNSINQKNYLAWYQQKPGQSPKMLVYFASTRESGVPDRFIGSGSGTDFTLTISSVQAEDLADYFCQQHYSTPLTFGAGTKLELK
notes: H chain of PaSta2 in PDB 7TUG and 7TUH (deposited here); the Fab H chain ends after the second cysteine in the hinge region, followed by the 6X HIS tag; L chain of PaSta2 in PDB 7TUG and 7TUH (deposited here); also called PaSta2 (Fab); Pt2; source: Expi293F cells, transfected, purified from culture supernatants (TALON, SEC)

Kd [5]: 1310 nM
B5: human tapasin lumenal domain (Gly1-Glu381), biotinylated at its C-terminal BirA sequence (domain or fragment, UniProt O15533 21-401, looked up)
chain: T1 chain with R240T
modifications: biotin at the C-terminal BirA sequence
notes: Tapasin as captured on the streptavidin chip for SPR; also called biotinylated tapasin; source: Drosophila S2 cells, purified from the culture media (chelate agarose, SEC, anion exchange)
